Measured values from US20210246166A1 (Bayer, published 2021).
Bridge positions count the residues as written; N and C are the ends. Square brackets hold non-standard residues; d marks the D form. Ends that are not written are not given here. * marks the point of attachment. Oic = O=C(O)[C@@H]1C[C@@H]2CCCC[C@@H]2N1; Cyclopropylacetic acid = O=C(CC1CC1)*; Gly(cPent) = N[C@H](C(=O)O)C1CCCC1; NMeI = CC[C@H](C)[C@H](NC)C(=O)O; aIle = CC[C@@H](C)[C@H](N)C(=O)O; tBuAla = CC(C)(C)C[C@H](N)C(=O)O; aThr = C[C@H](O)[C@H](N)C(=O)O; Chg = N[C@H](C(=O)O)C1CCCCC1; NMeC = CN[C@@H](CS)C(=O)O; Aib = CC(C)(N)C(=O)O; Sar = CNCC(=O)O

T1: recombinant rat MASP1 active protease (amino acids 302-704, C-terminal His Tag) (rat, UniProt Q8CHN8 302-704)
T1 sequence: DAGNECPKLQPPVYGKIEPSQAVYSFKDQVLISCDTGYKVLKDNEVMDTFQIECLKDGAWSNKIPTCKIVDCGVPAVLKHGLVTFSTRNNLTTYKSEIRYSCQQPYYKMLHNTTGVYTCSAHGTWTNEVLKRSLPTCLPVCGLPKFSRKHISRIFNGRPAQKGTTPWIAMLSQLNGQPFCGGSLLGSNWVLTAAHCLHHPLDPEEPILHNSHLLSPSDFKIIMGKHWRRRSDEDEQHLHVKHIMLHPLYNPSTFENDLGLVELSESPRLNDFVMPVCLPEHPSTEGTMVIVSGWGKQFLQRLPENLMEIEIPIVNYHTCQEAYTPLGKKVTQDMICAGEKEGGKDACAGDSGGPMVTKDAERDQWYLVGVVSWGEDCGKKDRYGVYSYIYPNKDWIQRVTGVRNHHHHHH


The binders below were run against T1, recombinant rat MASP1 active protease … (assay: cell-based or functional assay).

Binder | rat MASP1 IC50 [nM]
G[NMeI]CSRSLPPICIP[dD]-OH (disulfide 3-11; N-terminus assumed; SMILES CC[C@H](C)[C@@H]1NC(=O)[C@@H]2CCCN2C(=O)[C@@H]2CCCN2C(=O)[C@H](CC(C)C)NC(=O)[C@H](CO)NC(=O)[C@H](CCCNC(=N)N)NC(=O)[C@H](CO)NC(=O)[C@@H](NC(=O)[C@H]([C@@H](C)CC)N(C)C(=O)CN)CSSC[C@@H](C(=O)N[C@H](C(=O)N2CCC[C@H]2C(=O)N[C@H](CC(=O)O)C(=O)O)[C@@H](C)CC)NC1=O) [Example 276: G-((N-Me)I)-C+SRSLPPIC+IPd-OH] | 200
G[NMeI]CSRSLPPICIPD-OH (disulfide 3-11; N-terminus assumed; SMILES CC[C@H](C)[C@@H]1NC(=O)[C@@H]2CCCN2C(=O)[C@@H]2CCCN2C(=O)[C@H](CC(C)C)NC(=O)[C@H](CO)NC(=O)[C@H](CCCNC(=N)N)NC(=O)[C@H](CO)NC(=O)[C@@H](NC(=O)[C@H]([C@@H](C)CC)N(C)C(=O)CN)CSSC[C@@H](C(=O)N[C@H](C(=O)N2CCC[C@H]2C(=O)N[C@@H](CC(=O)O)C(=O)O)[C@@H](C)CC)NC1=O) [Example 275: G-((N-Me)I)-C+SRSLPPIC+IPD-OH] | 150
A[NMeI]CSRSLPPICIPD-NH2 (disulfide 3-11; N-terminus assumed; SMILES CC[C@H](C)[C@@H]1NC(=O)[C@@H]2CCCN2C(=O)[C@@H]2CCCN2C(=O)[C@H](CC(C)C)NC(=O)[C@H](CO)NC(=O)[C@H](CCCNC(=N)N)NC(=O)[C@H](CO)NC(=O)[C@@H](NC(=O)[C@H]([C@@H](C)CC)N(C)C(=O)[C@H](C)N)CSSC[C@@H](C(=O)N[C@H](C(=O)N2CCC[C@H]2C(=O)N[C@@H](CC(=O)O)C(N)=O)[C@@H](C)CC)NC1=O) [Example 260: A-((N-Me)I)-C+SRSLPPIC+IPD-NH2] | 160
AICSRSLPP[Gly(cPent)]CIPD-NH2 (disulfide 3-11; N-terminus assumed; SMILES CC[C@H](C)[C@H](NC(=O)[C@H](C)N)C(=O)N[C@H]1CSSC[C@@H](C(=O)N[C@H](C(=O)N2CCC[C@H]2C(=O)N[C@@H](CC(=O)O)C(N)=O)[C@@H](C)CC)NC(=O)[C@H](C2CCCC2)NC(=O)[C@@H]2CCCN2C(=O)[C@@H]2CCCN2C(=O)[C@H](CC(C)C)NC(=O)[C@H](CO)NC(=O)[C@H](CCCNC(=N)N)NC(=O)[C@H](CO)NC1=O) [Example 262: AIC+SRSLPP-(Cpg)-C+IPD-NH2] | 490
{Cyclopropylacetic acid}-ICSRS[tBuAla]PPI[NMeC]I-NH2 (disulfide 2-10; SMILES CC[C@H](C)[C@H](NC(=O)[C@@H]1CSSC[C@H](NC(=O)[C@@H](NC(=O)CC2CC2)[C@@H](C)CC)C(=O)N[C@@H](CO)C(=O)N[C@@H](CCCNC(=N)N)C(=O)N[C@@H](CO)C(=O)N[C@@H](CC(C)(C)C)C(=O)N2CCC[C@H]2C(=O)N2CCC[C@H]2C(=O)N[C@@H]([C@@H](C)CC)C(=O)N1C)C(N)=O) [Example 274: (Cyclopropylacetic acid)-IC+SRS-((tBu)A)-PPI-((N-Me)C)+I-NH2] | 89

The next lines start with the values.

rat MASP1 IC50 [nM] | Binder
230 | GICSRSLPPICI[Aib]D-OH (disulfide 3-11; N-terminus assumed; SMILES CC[C@H](C)[C@H](NC(=O)CN)C(=O)N[C@H]1CSSC[C@@H](C(=O)N[C@H](C(=O)NC(C)(C)C(=O)N[C@@H](CC(=O)O)C(=O)O)[C@@H](C)CC)NC(=O)[C@H]([C@@H](C)CC)NC(=O)[C@@H]2CCCN2C(=O)[C@@H]2CCCN2C(=O)[C@H](CC(C)C)NC(=O)[C@H](CO)NC(=O)[C@H](CCCNC(=N)N)NC(=O)[C@H](CO)NC1=O) [Example 286: GIC+SRSLPPIC+I-(Aib)-D-OH]
100 | AICSRS[tBuAla]P[Oic]I[NMeC]IPD-NH2 (disulfide 3-11; N-terminus assumed; SMILES CC[C@H](C)[C@H](NC(=O)[C@H](C)N)C(=O)N[C@H]1CSSC[C@@H](C(=O)N[C@H](C(=O)N2CCC[C@H]2C(=O)N[C@@H](CC(=O)O)C(N)=O)[C@@H](C)CC)N(C)C(=O)[C@H]([C@@H](C)CC)NC(=O)[C@@H]2C[C@@H]3CCCC[C@@H]3N2C(=O)[C@@H]2CCCN2C(=O)[C@H](CC(C)(C)C)NC(=O)[C@H](CO)NC(=O)[C@H](CCCNC(=N)N)NC(=O)[C@H](CO)NC1=O) [Example 268: AIC+SRS-((tBu)A)-P-(Oic)-I-((N-Me)C)+IPD-NH2]
190 | [Sar]ICSRSLPPIC[aIle]PD-NH2 (disulfide 3-11; N-terminus assumed; SMILES CC[C@@H](C)[C@H](NC(=O)[C@@H]1CSSC[C@H](NC(=O)[C@@H](NC(=O)CNC)[C@@H](C)CC)C(=O)N[C@@H](CO)C(=O)N[C@@H](CCCNC(=N)N)C(=O)N[C@@H](CO)C(=O)N[C@@H](CC(C)C)C(=O)N2CCC[C@H]2C(=O)N2CCC[C@H]2C(=O)N[C@@H]([C@@H](C)CC)C(=O)N1)C(=O)N1CCC[C@H]1C(=O)N[C@@H](CC(=O)O)C(N)=O) [Example 277: ((N-Me)G)-IC+SRSLPPIC+(allo-I)-PD-NH2]
300 | G[NMeI]CSRSLPPICIPD-NH2 (disulfide 3-11; N-terminus assumed; SMILES CC[C@H](C)[C@@H]1NC(=O)[C@@H]2CCCN2C(=O)[C@@H]2CCCN2C(=O)[C@H](CC(C)C)NC(=O)[C@H](CO)NC(=O)[C@H](CCCNC(=N)N)NC(=O)[C@H](CO)NC(=O)[C@@H](NC(=O)[C@H]([C@@H](C)CC)N(C)C(=O)CN)CSSC[C@@H](C(=O)N[C@H](C(=O)N2CCC[C@H]2C(=O)N[C@@H](CC(=O)O)C(N)=O)[C@@H](C)CC)NC1=O) [Example 261: G-((N-Me)I)-C+SRSLPPIC+IPD-NH2]
470 | [Sar]ICSRSLPP[Chg]CIPD-NH2 (disulfide 3-11; N-terminus assumed; SMILES CC[C@H](C)[C@H](NC(=O)CNC)C(=O)N[C@H]1CSSC[C@@H](C(=O)N[C@H](C(=O)N2CCC[C@H]2C(=O)N[C@@H](CC(=O)O)C(N)=O)[C@@H](C)CC)NC(=O)[C@H](C2CCCCC2)NC(=O)[C@@H]2CCCN2C(=O)[C@@H]2CCCN2C(=O)[C@H](CC(C)C)NC(=O)[C@H](CO)NC(=O)[C@H](CCCNC(=N)N)NC(=O)[C@H](CO)NC1=O) [Example 282: ((N-Me)G)-IC+SRSLPP-(Chg)-C+IPD-NH2]
170 | AICSRSLP[Oic][Chg]CIPD-NH2 (disulfide 3-11; N-terminus assumed; SMILES CC[C@H](C)[C@H](NC(=O)[C@H](C)N)C(=O)N[C@H]1CSSC[C@@H](C(=O)N[C@H](C(=O)N2CCC[C@H]2C(=O)N[C@@H](CC(=O)O)C(N)=O)[C@@H](C)CC)NC(=O)[C@H](C2CCCCC2)NC(=O)[C@@H]2C[C@@H]3CCCC[C@@H]3N2C(=O)[C@@H]2CCCN2C(=O)[C@H](CC(C)C)NC(=O)[C@H](CO)NC(=O)[C@H](CCCNC(=N)N)NC(=O)[C@H](CO)NC1=O) [Example 270: AIC+SRSLP-(Oic)-(Chg)-C+IPD-NH2]
83 | AICSR[aThr]LPPICIPD-NH2 (disulfide 3-11; N-terminus assumed; SMILES CC[C@H](C)[C@H](NC(=O)[C@H](C)N)C(=O)N[C@H]1CSSC[C@@H](C(=O)N[C@H](C(=O)N2CCC[C@H]2C(=O)N[C@@H](CC(=O)O)C(N)=O)[C@@H](C)CC)NC(=O)[C@H]([C@@H](C)CC)NC(=O)[C@@H]2CCCN2C(=O)[C@@H]2CCCN2C(=O)[C@H](CC(C)C)NC(=O)[C@H]([C@H](C)O)NC(=O)[C@H](CCCNC(=N)N)NC(=O)[C@H](CO)NC1=O) [Example 278: AIC+SR-(allo-T)-LPPIC+IPD-NH2]
